target: T1, EGFR on EGFR-positive tumor cell lines (UniProt P00533 25-1210, limits assumed); assay: cell-based or functional assay

Binder	EC50 of cell death induction, Colo205, with Bortezomib [nM]	EC50 of cell death induction, Colo205, with Bortezomib + Cetuximab [nM]	EC50 of cell death induction, HCT116, with Bortezomib [nM]	EC50 of cell death induction, HCT116, with Bortezomib + Cetuximab [nM]	EC50 of cell death induction, HT1080, with Bortezomib [nM]	EC50 of cell death induction, HT1080, with Bortezomib + Cetuximab [nM]
Db-Glyco-scTRAIL3-FAVSGAA (other, two N-glycosylation sites in the peptide AAAGNGTSNGTSEFGG, shown to be glycosylated) LEASDYKDDDDKGAEVQLVESGGGLVQPGGSLRLSCAASGFSLTNYGVHWVRQAPGKGLEWLGVIWSGGNTDYNTPFTSRFTISRDNSKNTLYLQMNSLRAEDTAVYYCARALTYYDYEFAYWGQGTTVTVSSGGGGSDIQLTQSPSFLSASVGDRVTITCRASQSIGTNIHWYQQKPGKAPKLLIKYASESISGVPSRFSGSGSGTEFTLTISSLQPEDFATYYCQQNNNWPTTFGAGTKLEIKRAAAGNGTSNGTSEFGGAAAHITGTRGRSNTLSSPNSKNEKALGRKINSWESSRSGHSFLSNLHLRNGELVIHEKGFYYIYSQTYFRFQEEIKENTKNDKQMVQYIYKYTSYPDPILLMKSARNSCWSKDAEYGLYSIYQGGIFELKENDRIFVSVTNEHLIDMDHEASFFGAFAVSGAAAHITGTRGRSNTLSSPNSKNEKALGRKINSWESSRSGHSFLSNLHLRNGELVIHEKGFYYIYSQTYFRFQEEIKENTKNDKQMVQYIYKYTSYPDPILLMKSARNSCWSKDAEYGLYSIYQGGIFELKENDRIFVSVTNEHLIDMDHEASFFGAFAVSGAAAHITGTRGRSNTLSSPNSKNEKALGRKINSWESSRSGHSFLSNLHLRNGELVIHEKGFYYIYSQTYFRFQEEIKENTKNDKQMVQYIYKYTSYPDPILLMKSARNSCWSKDAEYGLYSIYQGGIFELKENDRIFVSVTNEHLIDMDHEASFFGAFAVS	0.033	0.074	0.066	0.45	0.001	0.01
Db-Glyco-scTRAIL3-FAVSGIA (other, glycosylated connecting peptide) LEASDYKDDDDKGAEVQLVESGGGLVQPGGSLRLSCAASGFSLTNYGVHWVRQAPGKGLEWLGVIWSGGNTDYNTPFTSRFTISRDNSKNTLYLQMNSLRAEDTAVYYCARALTYYDYEFAYWGQGTTVTVSSGGGGSDIQLTQSPSFLSASVGDRVTITCRASQSIGTNIHWYQQKPGKAPKLLIKYASESISGVPSRFSGSGSGTEFTLTISSLQPEDFATYYCQQNNNWPTTFGAGTKLEIKRAAAGNGTSNGTSEFGGIAAHITGTRGRSNTLSSPNSKNEKALGRKINSWESSRSGHSFLSNLHLRNGELVIHEKGFYYIYSQTYFRFQEEIKENTKNDKQMVQYIYKYTSYPDPILLMKSARNSCWSKDAEYGLYSIYQGGIFELKENDRIFVSVTNEHLIDMDHEASFFGAFAVSGIAAHITGTRGRSNTLSSPNSKNEKALGRKINSWESSRSGHSFLSNLHLRNGELVIHEKGFYYIYSQTYFRFQEEIKENTKNDKQMVQYIYKYTSYPDPILLMKSARNSCWSKDAEYGLYSIYQGGIFELKENDRIFVSVTNEHLIDMDHEASFFGAFAVSGIAAHITGTRGRSNTLSSPNSKNEKALGRKINSWESSRSGHSFLSNLHLRNGELVIHEKGFYYIYSQTYFRFQEEIKENTKNDKQMVQYIYKYTSYPDPILLMKSARNSCWSKDAEYGLYSIYQGGIFELKENDRIFVSVTNEHLIDMDHEASFFGAFAVS	0.019	0.032	0.043	0.161	0.0006	0.005
Db8-Glyco-scTRAIL3-FAVSGAA (other, glycosylated connecting peptide) LEASDYKDDDDKGAEVQLVESGGGLVQPGGSLRLSCAASGFSLTNYGVHWVRQAPGKGLEWLGVIWSGGNTDYNTPFTSRFTISRDNSKNTLYLQMNSLRAEDTAVYYCARALTYYDYEFAYWGQGTTVTVSSGGGGSGGGDIQLTQSPSFLSASVGDRVTITCRASQSIGTNIHWYQQKPGKAPKLLIKYASESISGVPSRFSGSGSGTEFTLTISSLQPEDFATYYCQQNNNWPTTFGAGTKLEIKRAAAGNGTSNGTSEFGGAAAHITGTRGRSNTLSSPNSKNEKALGRKINSWESSRSGHSFLSNLHLRNGELVIHEKGFYYIYSQTYFRFQEEIKENTKNDKQMVQYIYKYTSYPDPILLMKSARNSCWSKDAEYGLYSIYQGGIFELKENDRIFVSVTNEHLIDMDHEASFFGAFAVSGAAAHITGTRGRSNTLSSPNSKNEKALGRKINSWESSRSGHSFLSNLHLRNGELVIHEKGFYYIYSQTYFRFQEEIKENTKNDKQMVQYIYKYTSYPDPILLMKSARNSCWSKDAEYGLYSIYQGGIFELKENDRIFVSVTNEHLIDMDHEASFFGAFAVSGAAAHITGTRGRSNTLSSPNSKNEKALGRKINSWESSRSGHSFLSNLHLRNGELVIHEKGFYYIYSQTYFRFQEEIKENTKNDKQMVQYIYKYTSYPDPILLMKSARNSCWSKDAEYGLYSIYQGGIFELKENDRIFVSVTNEHLIDMDHEASFFGAFAVS	0.026	0.061	0.051	0.3	0.0009	0.007

target: T1, EGFR on EGFR-positive tumor cell lines; assay: cell-based or functional assay; remark: another data set of the same source

Binder	EC50 of cell death induction, Colo205, with Bortezomib [nM]	EC50 of cell death induction, Colo205, without bortezomib [nM]	EC50 of cell death induction, Colo205 in presence of Cetuximab, with bortezomib [nM]	EC50 of cell death induction, Colo205 in presence of Cetuximab, without bortezomib [nM]
Dbhu225-scTRAIL3-FLVGGGPQRVA (other, not shown: small tags and cut ends) DYKDDDDKGGGGSGTEVQLVESGGGLVQPGGSLRLSCAASGFSLTNYGVHWVRQAPGKGLEWLGVIWSGGNTDYNTPFTSRFTISRDNSKNTLYLQMNSLRAEDTAVYYCARALTYYDYEFAYWGQGTTVTVSSGGGGSDIQLTQSPSFLSASVGDRVTITCRASQSIGTNIHWYQQKPGKAPKLLIKYASESISGVPSRFSGSGSGTEFTLTISSLQPEDFATYYCQQNNNWPTTFGAGTKLEIKRAAAGGSGGGPQRVAAHITGTRGRSNTLSSPNSKNEKALGRKINSWESSRSGHSFLSNLHLRNGELVIHEKGFYYIYSQTYFRFQEEIKENTKNDKQMVQYIYKYTSYPDPILLMKSARNSCWSKDAEYGLYSIYQGGIFELKENDRIFVSVTNEHLIDMDHEASFFGAFLVGGGPQRVAAHITGTRGRSNTLSSPNSKNEKALGRKINSWESSRSGHSFLSNLHLRNGELVIHEKGFYYIYSQTYFRFQEEIKENTKNDKQMVQYIYKYTSYPDPILLMKSARNSCWSKDAEYGLYSIYQGGIFELKENDRIFVSVTNEHLIDMDHEASFFGAFLVGGGPQRVAAHITGTRGRSNTLSSPNSKNEKALGRKINSWESSRSGHSFLSNLHLRNGELVIHEKGFYYIYSQTYFRFQEEIKENTKNDKQMVQYIYKYTSYPDPILLMKSARNSCWSKDAEYGLYSIYQGGIFELKENDRIFVSVTNEHLIDMDHEASFFGAFLVG	0.0038	0.041	0.0138	0.102
dsDbhu225-scTRAIL3-FLVGGGPQRVA (other, not shown: small tags and cut ends) DYKDDDDKGGGGSGTEVQLVESGGGLVQPGGSLRLSCAASGFSLTNYGVHWVRQAPGKCLEWLGVIWSGGNTDYNTPFTSRFTISRDNSKNTLYLQMNSLRAEDTAVYYCARALTYYDYEFAYWGQGTTVTVSSGGGGSDIQLTQSPSFLSASVGDRVTITCRASQSIGTNIHWYQQKPGKAPKLLIKYASESISGVPSRFSGSGSGTEFTLTISSLQPEDFATYYCQQNNNWPTTFGCGTKLEIKRAAAGGSGGGPQRVAAHITGTRGRSNTLSSPNSKNEKALGRKINSWESSRSGHSFLSNLHLRNGELVIHEKGFYYIYSQTYFRFQEEIKENTKNDKQMVQYIYKYTSYPDPILLMKSARNSCWSKDAEYGLYSIYQGGIFELKENDRIFVSVTNEHLIDMDHEASFFGAFLVGGGPQRVAAHITGTRGRSNTLSSPNSKNEKALGRKINSWESSRSGHSFLSNLHLRNGELVIHEKGFYYIYSQTYFRFQEEIKENTKNDKQMVQYIYKYTSYPDPILLMKSARNSCWSKDAEYGLYSIYQGGIFELKENDRIFVSVTNEHLIDMDHEASFFGAFLVGGGPQRVAAHITGTRGRSNTLSSPNSKNEKALGRKINSWESSRSGHSFLSNLHLRNGELVIHEKGFYYIYSQTYFRFQEEIKENTKNDKQMVQYIYKYTSYPDPILLMKSARNSCWSKDAEYGLYSIYQGGIFELKENDRIFVSVTNEHLIDMDHEASFFGAFLVG	0.0025	0.0212	0.0072	0.0423
scFvhu225-EHD2-scTRAIL3-FLVGGGPQRVA (other) DYKDDDDKGGGGSGTEVQLVESGGGLVQPGGSLRLSCAASGFSLTNYGVHWVRQAPGKGLEWLGVIWSGGNTDYNTPFTSRFTISRDNSKNTLYLQMNSLRAEDTAVYYCARALTYYDYEFAYWGQGTTVTVSSGGGGSGGGGSGGGGSDIQLTQSPSFLSASVGDRVTITCRASQSIGTNIHWYQQKPGKAPKLLIKYASESISGVPSRFSGSGSGTEFTLTISSLQPEDFATYYCQQNNNWPTTFGAGTKLEIKRAAAGGSGGDFTPPTVKILQSSCDGGGHFPPTIQLLCLVSGYTPGTINITWLEDGQVMDVDLSTASTTQEGELASTQSELTLSQKHWLSDRTYTCQVTYQGHTFEDSTKKCADSNGGSGGASSGGGPQRVAAHITGTRGRSNTLSSPNSKNEKALGRKINSWESSRSGHSFLSNLHLRNGELVIHEKGFYYIYSQTYFRFQEEIKENTKNDKQMVQYIYKYTSYPDPILLMKSARNSCWSKDAEYGLYSIYQGGIFELKENDRIFVSVTNEHLIDMDHEASFFGAFLVGGGPQRVAAHITGTRGRSNTLSSPNSKNEKALGRKINSWESSRSGHSFLSNLHLRNGELVIHEKGFYYIYSQTYFRFQEEIKENTKNDKQMVQYIYKYTSYPDPILLMKSARNSCWSKDAEYGLYSIYQGGIFELKENDRIFVSVTNEHLIDMDHEASFFGAFLVGGGPQRVAAHITGTRGRSNTLSSPNSKNEKALGRKINSWESSRSGHSFLSNLHLRNGELVIHEKGFYYIYSQTYFRFQEEIKENTKNDKQMVQYIYKYTSYPDPILLMKSARNSCWSKDAEYGLYSIYQGGIFELKENDRIFVSVTNEHLIDMDHEASFFGAFLVG	0.0018	0.0119	0.0067	0.0693

Reference: US20180094059A1 (UNIVERSITAT STUTTGART, published 2018)
